Test results reported in PMC8883494, “Conformational trapping of an ABC transporter in polymer lipid nanoparticles” (Biochemical Journal, 2021).

Molecular target: the molecule itself
Assay: SAXS; Sav1866-SMALPs from the 12 ml SEC fraction, undiluted sample, 20 mM Tris pH 8, 150 mM NaCl; DAMMIF models with P1 and P2 symmetry fitted with the crystal structure 2HYD

B1: Staphylococcus aureus ABC transporter Sav1866 in styrene-maleic acid lipid particles (natural protein)
chain: MIKRYLQFVKPYKYRIFATIIVGIIKFGIPMLIPLLIKYAIDGVINNHALTTDEKVHHLTIAIGIALFIFVIVRPPIEFIRQYLAQWTSNKILYDIRKKLYNHLQALSARFYANNQVGQVISRVINDVEQTKDFILTGLMNIWLDCITIIIALSIMFFLDVKLTLAALFIFPFYILTVYVFFGRLRKLTRERSQALAEVQGFLHERVQGISVVKSFAIEDNEAKNFDKKNTNFLTRALKHTRWNAYSFAAINTVTDIGPIIVIGVGAYLAISGSITVGTLAAFVGYLELLFGPLRRLVASFTTLTQSFASMDRVFQLIDEDYDIKNGVGAQPIEIKQGRIDIDHVSFQYNDNEAPILKDINLSIEKGETVAFVGMSGGGKSTLINLIPRFYDVTSGQILIDGHNIKDFLTGSLRNQIGLVQQDNILFSDTVKENILLGRPTATDEEVVEAAKMANAHDFIMNLPQGYDTEVGERGVKLSGGQKQRLSIARIFLNNPPILILDEATSALDLESESIIQEALDVLSKDRTTLIVAHRLSTITHADKIVVIENGHIVETGTHRELIAKQGAYEHLYSIQNL
notes: Sav1866, ABC transporter (half-transporter, homodimer) of Staphylococcus aureus; expressed from pet-19b:sav1866; M from chemical composition 64 863 Da; the undigested band at 65 kDa is called full-length Sav1866; Embedded in a SMALP nanoparticle with E. coli lipids; The DNA construct was a gift; its exact limits and linker are not described; also called Sav1866-SMALPs; Sav1866-10His; source: E. …
stoichiometry N: 2
